Source: US12697350B2, “Methods and compositions for treating a premature termination codon-mediated disorder” (Tevard Biosciences, Inc., priority 2019, dated 2026)

How the values were obtained:
EGFP-R96X-TGA = test: Readthrough of suppressor tRNA delivered by AAV-PHP.eB, EGFP-R96X-TGA, 293 cells pre-transfected with LY6A (FIG. 41); assay type: cell-based, human
Text: FIG. 40 is a schematic representation of constructs that were packaged into AAV-PHP.eB capsids. Construct 262 contains wild-type EGFP driven by an EF1a promoter. Construct 269 contains EGFP-R96X-TGA driven by an EF1a promoter (SEQ ID NO: 177) and two copies of the ArgTCA suppressor tRNA #115 (SEQ ID NO: 18) (“TCA-115”) in the context of 55 bps upstream flanking genomic DNA from tRNA-Tyr-GTA-5-1 (SEQ ID NO: 900). Both constructs contain 5′ and 3′ ITR sequences from AAV2, which provide cis-acting elements for AAV replication and packaging.
FIG. 41 depicts readthrough activity of suppressor tRNAs delivered by AAV. AAV-PHP.eB containing the constructs shown in FIG. 40 was produced by Vigene Biosciences. 48 hours prior to AAV transduction, 293 cells were pre-transfected with an expression construct containing the LY6A gene, which is required for robust transduction by AAV-PHP.eB. Cells were transduced at an MOI of 1E5 vg/cell. Where indicated, cells were also transfected with an expression construct containing the EGFP-R96X-TGA reporter (SEQ ID NO: 31) and an expression construct containing the ArgTCA suppressor tRNA #115 (SEQ ID NO: 18). At 72 hours post transduction, the EGFP signal was quantified by immunofluorescence. Live cell images were captured on an EVOS FL Auto 2 imaging system. […]

EGFP-R96X-TGA reporter = test: PTC readthrough of ArgTCA suppressor tRNA versus nonsense suppression drugs, EGFP-R96X-TGA reporter, Neuro-2a cells (FIGS. 21-22); assay type: cell-based, mouse; conditions: versus ataluren, gentamicin, G418
Method: FIG. 21 depicts fluorescent images of Neuro-2a cells ~24 hours after transfection with an expression construct containing an EGFP-R96X-TGA reporter (“GFP-PTC”) and either (i) including the ArgTCA suppressor tRNA #115 (SEQ ID NO: 18) at the indicated copy number on the same construct, or (ii) treated with ataluren at the indicated concentration, (iii) treated with gentamicin at the indication concentration, or (iv) treated with G418 at the indicated concentration. For all experimental conditions, cell culture medium was replaced with fresh medium ~6 hours after transfection and the indicated drugs at the indicated concentrations were added at this point. […]
FIG. 22 is a graph depicting percentage of GFP positive cells as measured by flow cytometry at ~48 hours post transfection. […]
Disclosed suppressor tRNAs were tested alongside nonsense suppression drugs translarna (ataluren), gentamicin, and G418 (geneticin). PTC readthrough activity was measured in Neuro-2a cells ~48 hours after transfection with an expression construct containing a CAG:NLS-EGFP (R96X-TGA) reporter (as described in Example 1) and either (i) including an ArgTCA suppressor tRNA at the indicated copy number on the same construct, or (ii) treated with ataluren, (iii) treated with gentamicin, or (iv) treated with G418. […] PTC readthrough activity was measured as the percentage of EGFP positive cells. […]

B1: tRNA-Arg-TCT-2-1-TCA-SUP_no intron (nucleic acid)
chain: GGCTCCGTGGCGCAATGGATAGCGCATTGGACTTCAAATTCAAAGGTTCCGGGTTCGAGTCCCGGCGGAGTCG
modifications: chemistry not fully specified
In the case of B1, the “readthrough activity, AAV delivery versus transient transfection” value (EGFP-R96X-TGA; 293 cells pre-transfected with LY6A) is reported as “comparable readthrough activity when delivered by AAV or transient transfection”, the “PTC readthrough based on GFP intensity” value (EGFP-R96X-TGA; AAV-PHP.eB with construct 269 (two copies of #115), MOI 1E5 vg/cell, 72 hours post transduction, normalized to construct 262 (wild-type EGFP)) is reported as ~ 13.2% and the “PTC readthrough compared with nonsense suppression drugs” value (EGFP-R96X-TGA reporter) is reported as “far greater readthrough than any of the nonsense suppression drugs”.
